Test: soluble on expression in E. coli; label from the status in PepcDB or PDB records

Sequence | soluble on expression in E. coli
MAACRALKAVLVDLSGTLHIEDAAVPGAQEALKRLRGASVIIRFVTNTTKESKQDLLERLRKLEFDISEDEIFTSLTAARSLLERKQVRPMLLVDDRALPDFKGIQTSDPNAVVMGLAPEHFHYQILNQAFRLLLDGAPLIAIHKARYYKRKDGLALGPGPFVTALEYATDTKATVVGKPEKTFFLEALRGTGCEPEEAVMIGDDCRDDVGGAQDVGMLGILVKTGKYRASDEEKINPPPYLTCESFPHAVDHILQHLLAENLYFQ | soluble
MGSDKIHHHHHHMLTKRQLLVLKEIIRLFTESGQPVGSKTLMQELPVHVSSATIRNDMAALEDAGLITKTHSSSGRVPSTQGYRYYLDHLVEPVRVSRHDLATIKQELGQRYSKMDEIVAQSAQILSNLTSYTAISLGPEVNNIKLTGFRLVPLGNHQVMAILVTNNGNVENQVFTVPPSISFDELEKAIRIVNDQLVGLPLVQVAQRLRTDVPSMLMQYLTSPDGFLDIFGNVLKSAASERFYVGGRLNLMDYLGDSDIHELKKIMSLIDADHGDLTELLGGPIRQTPVQVRLGPELKPIDLANLSLITASYDVGGHGTGMIALLGPTQMPYSKMIGLLDVFREELAKRLTDYYANFDQ | not soluble
MGVHVVLYQPEIPANTGNIARTCAATGTELHLIRPLGFSTDDKMLKRAGLDYWQHVKITYYDSIEEFYEKNKDGEFFYLTKYGEKAHTAFDYSKREKDYYFVFGRETNGLPANVIEENFDHCLRIPMTDKVRSLNLSNTAAILIYEAFRQQNYPGLDLEIVY | not soluble
MTVTFTLPLDCSFNNLWTCHAEGIERDLGKVGGGAASSGKTSTGVSRTVTRGVNLSGADFSEQDLSGVSFQQSLLRETDFHGAKLVSASFFGAELSYANLEDADLTEANLELANLRSAKLKNAVLRRAYFSGNTRLENVDIDGADFSEVILRKDQKKYLCNIANGTNSHTGVETKTSLGCNSS | not soluble
MGSDKIHHHHHHMKAQEVPSTTFTGGETVLTFKGGVHPPELKEWSKDKPIERAPLPQKVFVFLSNHAGNPAKPVVSPGDEVKTGQVIGEPEGFISAYLHSPVTGRVLEIKKILHPILGKPIEAIVIERTSDDEWVHIETGDFERMSKEEILEIIKKAGIVGLGGAMFPTHVKLSPPPEKKVDTLIVNGAECEPVLTIDHRLMLERAEDILQGILIMMKVLGVQKAVVGVESNKMDAYHNLKKVFKGYPVDVALLRTKYPQGAEKQLIYAITGRMVPRGGLPMDVGVVVQNVGTCVAVKEAVVDGKPLVERGMTVSGDAVKNQKNLIVRIGTPVKDVIDYCGGIDENTERVILGGPMMGISITNLDIPVMKGTSGITAFLPKKSRPQKPCIRCSECVQVCPMNLQPYLLYLLSTKRKYDEAVENGLMDCIECGSCTYTCPSKIEHVRYIKLAKTVYRATRRGRR | not soluble
MGSDKIHHHHHHMIHKLEMFIAVAREAHFGRAAESLGLTQPTLSTGIKQLEEMLGVQLIFRGSRYGGLTPEGQRALVWARQLVSDARTFRQEMRTARHGLSGIVRLAVIPTALTWAAHLSARFSAAHPNVRFSILSRTSAEILSMLENLEADAGLSYLDNEPLGRVTTEPLYRERHTVVAHRDSDIAMQDKVEWADLAGERLCLLTPNMQNRRIINEYFMAAGIAPEAQVESNSTVVLAAHVEAGDWITILPVDMARFLCGGKPHLVIREIEGTGMDHAVGLVAPYREPHTPVLNALISETRALAKAHA | not soluble
MPKRKTGYEEMLEDVIETLKQSPEEVNKALETSGKVVEAANDLTKDELALIAAYVKADLKEFSESYEDSKSGPFYLTVADSIWQGLLEITDRTKVEWVELFDDLEHQGLYEAGEVIGLGTLVCDECGHKTTYNHPIIIIPCIKCGHKGFSRQSLKP | not soluble
MDLNFKELAEAKKDAILKDLEELIAIDSSEDLENATEEYPVGKGPVDAMTKFLSFAKRDGFDTENFANYAGRVNFGAGDKRLGIIGHMDVVPAGEGWTRDPFKMEIDEEGRIYGRGSADDKGPSLTAYYGMLLLKEAGFKPKKKIDFVLGTNEETNWVGIDYYLKHEPTPDIVFSPDAEYPIINGEQGIFTLEFSFKNDDTKGDYVLDKFKAGIATNVTPQVTRATISGPDLEAVKLAYESFLADKELDGSFEINDESADIVLIGQGAHASAPQVGKNSATFLALFLDQYAFAGRDKNFLHFLAEVEHEDFYGKKLGIFHHDDLMGDLASSPSMFDYEHAGKASLLNNVRYPQGTDPDTMIKQVLDKFSGILDVTYNGFEEPHYVPGSDPMVQTLLKVYEKQTGKPGHEVVIGGGTYGRLFERGVAFGAQPENGPMVMHAANEFMMLDDLILSIAIYAEAIYELTKDEEL | soluble
MGIRELNLTKEQHEWLNGWLELWAHGLSGRLEKRMSSVIAKFMESIEPGRVMTRPMCNDDDGMLISQVVDSVMYIDKKAFGILLSYYAHGSSKHAIASYYHRVARPRKMLCRGGGRIQKPSLATCRREVDEILNASLFMIYPVLDSAFKNRKRVEKIKHVALEHHHHHH | soluble
MHIQRKSTMSKCSADETPVCCCMDVGTIMDNSDCTASYSRVFANRAEAEQTLAALTEKARSVESEPCKITPTFTEESDGVRLDIDFTFACEAEMLIFQLGLR | not soluble
MGSDKIHHHHHHMETITKKANLSLLELPSGGEESLFCRLYSPALAGPAPLIVLFHGFPGKQLNMDWAVQLQNLSFHVLVTSYRGTIGSPGAFRFRHVLEDATAIMQHVVSPEFTQAHDISADQISIVGHSMGGFAGLHAFIDVPDIAHYIGISPFNFGLIGQLVLDYPEHEEALQGVLSRGAQFLSHTDGDILLDELKRHHATWNLLSLKEQLGTRSALLVTSERDETSIKSLHHDLLQDASAFEQIIVDSDHNYIENREDAFRAWTTWLRRR | not soluble
MAHHHHHHMGKAAKGRTAMPGKLDTTEADKRTPKSIIIYRGEVGIHVRSLMHEWRNVFLPWSSKKLHGKNKSLKDFLAVAATFSASHLQLFTAPSQGTSLRIMRFFNGPTLSFRVLSFTLHKEIVAKQRRPVAVDRAAWEVAPIVVLNNFTHPDLAHRAEVPLLTATFKALFPSLNVQTIQSSEIQRICLFHYDHVEHVVEVRHYYINARTVGVTKTVKKLLENRRPTKLGTLESIDEVLDREDAWSDTDG | not soluble
MSLSKIIPFREEIFHQINQILESQKAFIFLWGKSGSGKSVLLQRLAKKYNVDFINENFKDQSFLKEKIEFLISQGQSLIILDEVGMYDYAMLESIRIYSDSISFVLSSHKKLNILKKEHFKSRLSACFKLKNISLLELDDYIKLKFGMNFSNKCLKFLQKISQGNLRYIDKTLKSFYEINSFFDKNKSQEYILKLSALENGLLREGHHHHHH | soluble
MYFPIVALIGRYQDTGLDAPLTALAQMLTQAGRRVLVEAETARNAGVSGYPVADWDEIGRTATLAVVMGGDGTVLGAARHLAPYGVPLIGINHGRLGFITDIPLQDAHDALGRVLEGNYQAEDRMLLQGGVWRGEQQMYSASAVNDVVLNRAGRGGMIEVRVELDGAFMYTQRADGLIIATPTGSTAYSLSANGPILHPGMNAMVLVPVAPQTLSNRPIVIPDSGVLNMTLTAMGRVEIGASVHFDMQTWSDLQPGDRITVQRAPHTIRFVHPEGYSFFSTLRRKLHWNLMPQATDNLELEHHHHHH | soluble
GMSLIEIRKRTLIVETTYHENGPAPAQPLKLAASCAVIRNPYAGRYEPDLMPFMAELRSLGTLLATELVDTLGKDNIEVYSKAAIVGVDGEMEHGAVWHEAGGWAMRSVLGEPKAMVPAVKAVATAGYRMMVPVHYIHASYVRSHFNSIEIGIQDAPRPREILFALVMGTGARVHARLGGLTKEAVSVHDGQR | soluble
MAHHHHHHMRSGPCPLPPAVAARSLLSPFGIGVSKRLALVGSGNSITALLVKENVPAGTPLLLAPDAALLTCQGALDADVDGLVPPPAEMLELLKRDTAQLDHVYLAYYLSLRCFTNTEDWFSSQIHRFKDSGSASQEDTASSRIWERFAQKYVTAPAPVFMAALQYVWESCFRKPATEADSASAPLPAALAVAPVVDVASQSRNATNSALTATTAKALKETHLHSDITGARQALLAKNDAYVYWVLTAITDIPVGGEVSVSSESVL | soluble
MMNEYRFHLEKYRLGNRYTCPNCERKRCFTRYIDDEGEVSFPDNVGKCDHEHSCGYHYTPKDYFREHPDFLSKDKLPYPTRGNTQPKVVEKPISYIANAIMERSLSHYGINPLYQYLSKVFGEQETERLMKMYHVGTSYKWGGSTIYWQVDKDDKVRTGKVMLYNPKDGHRVKEPRSYVGWAHAFLHLPDFNLCQCFFGEHLLAQHPTMSVAIVESEKTAIIASHFIPNFIWLATGGMHGCLNQIAVKVLGGRDIILFPDLGATDKWKSKIPLLQSVCKRVVISNILEDNATDEQKTKGLDIADFLLMAETPQMALQRLIKQHPPLKHLIDCLGLVLVEES | not soluble
MKREQILSLIAEIDDLLNALNMVVKEIEEKKREFSDKEPDQFILRALGSLLHDFYTIIEDIFELISSEMNGVRLDSFDWHKRLLNKMTLEIPGLRPAVISKRLKEMLDEYLRFRHVFRNVYGYLLQWERMKPLLEKAGAVYERFEEEIERFKDFLRELAEKM | not soluble
LGVDRAKQIQALAKGTFGINIALDAFTLELRLLVEQIEFIEEQISVIEEAIDQVMEEMRPSKDTAYRHVLETIPGIGPVLAASIIGEIGDINRFPNAKALVAYAGLDATVRSSGQFEGTRNRISKRGSPVLRHSIWLAAVSARRFNPEMKEFFEKKRSEGKHTLVATGAVARRMVHLIYSLWKDNRPFDPNYQWSPTNSR | soluble
MSLENIRNIAVIAHVDHGKTTMVDELLKQSGTFSEREQISERVMDSNDIEKERGITILSKNTAINYKGTKINIIDTPGHADFGGEVERVLKMIDGVLLLVDAQEGVMPQTKFVVKKALSLGLKPIVVINKIDKPAADPERVINEIFDLFVALDANDEQLDFAIVYAAAKNGYAKLDLNDESDNMEPLFKTILERVPAPSGSDENPLQLQVFTLGYDNFVGKIGIARIFNGVVKKNQSVMLAKADGTKVNGRISKLIGFMGLEKMDIEEAGSGDIVAIAGFEALDVGDSVVDPNNPMPLDPLHIEEPTLSIVFSVNDGPLAGTEGKHVTSNKIAERLEAEMKTNIAMKYESTGEGKFKVSGRGELQITILAENMRREGFEFCMGRPEVIVKVEDGVKTEPFEHLVIDVPEEFSGAVIEKLGKRKAEMKTMAPTGDGQTRLEFEIPARGLIGFRSQFLTDTKGEGVMNHSFLEFRPFSGAVEKRNNGALISMENGVALGYSLFNLQERGVLFIEPQTKVYTGMIIGEHSRPNDLDVNPIKGKNLTNVRASGSDDAIKLVPPRKLSLERALEWIEEDELVEVTPVNVRVRKRYLDPTQRKRMEKAKEGHHHHHH | soluble
MYSKIEGSIITARFDKETDFFTDLVDLCNKYEVKSGTVLWAIGMLKEFQIGYWNGNDYEKETFRERLELVSLHGSIAENDPRFHIHAAGARGNHGIVGGHLFSAKVDPLVEIQIMKITGFSMSRELDNSDGLYKLVIKLEHHHHHH | not soluble
MSGSDRGDRLYDVLGVTRDATVQEIKTAYRKLALKHHPDKYVDQDSKEVNEIKFKEITAAYEILSDPEKKSHYDLYGDDNGAASSGG | not soluble
VTTMHDVARAAGVSQAAVSYAYNQPHKLSAARRAHIFQVAAELGYAGPNPAGRNLRTGQVGALGLMITDSLRYAFDDPATSQLLKGISEVGELAEVALTLLPCPLESTRVAEGSGVLVRGAVDGFLAYAMPDGHPGMQTAMSRRLPIVVIDGPNPGGLPRVGIRDRQAAKEIAEHVLSLGHRRVGFLVDRLVPDGKGGPVDAARTRAARDHVMKERLAGYASACRKYTVPWSSTVVVEAGGFDYELSRTAVETLLDAGPVTAVIAASDLLALAAIDVAHERGLRVPQDLSVVGFDDIPAARAAGLTTVRQPLVDKGREAAQLLLDIIGGGAGREITLPTELVVRESAGPVTADR | not soluble
